From publication PMC10786891, “Massively parallel profiling of RNA-targeting CRISPR-Cas13d” come the findings set out here.

B1: target 1 insC 3' of 14,insC 3' of 8 (mixed)
RNA 1: CACCCGUGCAAAAAUGCAGGGGUCUAAAACUGAGCGGAUAACCUCUCUAUGG
RNA 2: GGGAAUGGAUCCACAUCUACGAAUUCGUACCAUAGAGACGGUUAUCCCGCUCACCGAGAUCGGAAGAGCACACGU
B2: target 1 insA 3' of 17,insU 3' of 1 (mixed)
RNA 1: CACCCGUGCAAAAAUGCAGGGGUCUAAAACUGAGCGGAUAACCUCUCUAUGG
RNA 2: GGGAAUGGAUCCACAUCUACGAAUUCGUACCAUAGAAGAGGUUAUCCGCUCAUCCGAGAUCGGAAGAGCACACGU
B3: target 1 insC 3' of 20,insC 3' of 17 (mixed)
RNA 1: CACCCGUGCAAAAAUGCAGGGGUCUAAAACUGAGCGGAUAACCUCUCUAUGG
RNA 2: GGGAAUGGAUCCACAUCUACGAAUUCGUACCACUAGCAGAGGUUAUCCGCUCACCGAGAUCGGAAGAGCACACGU
B4: target 1 insG 3' of 3,insA 3' of 3 (mixed)
RNA 1: CACCCGUGCAAAAAUGCAGGGGUCUAAAACUGAGCGGAUAACCUCUCUAUGG
RNA 2: GGGAAUGGAUCCACAUCUACGAAUUCGUACCAUAGAGAGGUUAUCCGCUGACACCGAGAUCGGAAGAGCACACGU
B5: target 1 A1C,A16C (mixed)
RNA 1: CACCCGUGCAAAAAUGCAGGGGUCUAAAACUGAGCGGAUAACCUCUCUAUGG
RNA 2: GGGAAUGGAUCCACAUCUACGAAUUCGUACCAUAGCGAGGUUAUCCGCUCCCCGAGAUCGGAAGAGCACACGU
B6: target 1 U3C,G5C (mixed)
RNA 1: CACCCGUGCAAAAAUGCAGGGGUCUAAAACUGAGCGGAUAACCUCUCUAUGG
RNA 2: GGGAAUGGAUCCACAUCUACGAAUUCGUACCAUAGAGAGGUUAUCCCCCCACCGAGAUCGGAAGAGCACACGU
B7: target 1 insA 3' of 11 (mixed)
RNA 1: CACCCGUGCAAAAAUGCAGGGGUCUAAAACUGAGCGGAUAACCUCUCUAUGG
RNA 2: GGGAAUGGAUCCACAUCUACGAAUUCGUACCAUAGAGAGGUAUAUCCGCUCACCGAGAUCGGAAGAGCACACGU
B8: target 1 U3A,A20C (mixed)
RNA 1: CACCCGUGCAAAAAUGCAGGGGUCUAAAACUGAGCGGAUAACCUCUCUAUGG
RNA 2: GGGAAUGGAUCCACAUCUACGAAUUCGUACCCUAGAGAGGUUAUCCGCACACCGAGAUCGGAAGAGCACACGU
B9: target 1 insG 3' of 18,insA 3' of 8 (mixed)
RNA 1: CACCCGUGCAAAAAUGCAGGGGUCUAAAACUGAGCGGAUAACCUCUCUAUGG
RNA 2: GGGAAUGGAUCCACAUCUACGAAUUCGUACCAUAGGAGAGGUUAUACCGCUCACCGAGAUCGGAAGAGCACACGU
B10: target 1 insU 3' of 20,insC 3' of 10 (mixed)
RNA 1: CACCCGUGCAAAAAUGCAGGGGUCUAAAACUGAGCGGAUAACCUCUCUAUGG
RNA 2: GGGAAUGGAUCCACAUCUACGAAUUCGUACCAUUAGAGAGGUUCAUCCGCUCACCGAGAUCGGAAGAGCACACGU
B11: target 1 insG 3' of 20,insA 3' of 11 (mixed)
RNA 1: CACCCGUGCAAAAAUGCAGGGGUCUAAAACUGAGCGGAUAACCUCUCUAUGG
RNA 2: GGGAAUGGAUCCACAUCUACGAAUUCGUACCAGUAGAGAGGUAUAUCCGCUCACCGAGAUCGGAAGAGCACACGU
B12: target 1 insU 3' of 22,insC 3' of 9 (mixed)
RNA 1: CACCCGUGCAAAAAUGCAGGGGUCUAAAACUGAGCGGAUAACCUCUCUAUGG
RNA 2: GGGAAUGGAUCCACAUCUACGAAUUCGUACUCAUAGAGAGGUUACUCCGCUCACCGAGAUCGGAAGAGCACACGU
B13: target 1 A1U,U19A (mixed)
RNA 1: CACCCGUGCAAAAAUGCAGGGGUCUAAAACUGAGCGGAUAACCUCUCUAUGG
RNA 2: GGGAAUGGAUCCACAUCUACGAAUUCGUACCAAAGAGAGGUUAUCCGCUCUCCGAGAUCGGAAGAGCACACGU
B14: target 1 C7A,A14G (mixed)
RNA 1: CACCCGUGCAAAAAUGCAGGGGUCUAAAACUGAGCGGAUAACCUCUCUAUGG
RNA 2: GGGAAUGGAUCCACAUCUACGAAUUCGUACCAUAGAGGGGUUAUACGCUCACCGAGAUCGGAAGAGCACACGU
B15: target 1 insC 3' of 9,insU 3' of 4 (mixed)
RNA 1: CACCCGUGCAAAAAUGCAGGGGUCUAAAACUGAGCGGAUAACCUCUCUAUGG
RNA 2: GGGAAUGGAUCCACAUCUACGAAUUCGUACCAUAGAGAGGUUACUCCGCUUCACCGAGAUCGGAAGAGCACACGU
B16: target 1 C7U,A9U (mixed)
RNA 1: CACCCGUGCAAAAAUGCAGGGGUCUAAAACUGAGCGGAUAACCUCUCUAUGG
RNA 2: GGGAAUGGAUCCACAUCUACGAAUUCGUACCAUAGAGAGGUUUUUCGCUCACCGAGAUCGGAAGAGCACACGU
B17: target 1 insU 3' of 14,insG 3' of 4 (mixed)
RNA 1: CACCCGUGCAAAAAUGCAGGGGUCUAAAACUGAGCGGAUAACCUCUCUAUGG
RNA 2: GGGAAUGGAUCCACAUCUACGAAUUCGUACCAUAGAGAUGGUUAUCCGCGUCACCGAGAUCGGAAGAGCACACGU
B18: target 1 insA 3' of 17,insG 3' of 1 (mixed)
RNA 1: CACCCGUGCAAAAAUGCAGGGGUCUAAAACUGAGCGGAUAACCUCUCUAUGG
RNA 2: GGGAAUGGAUCCACAUCUACGAAUUCGUACCAUAGAAGAGGUUAUCCGCUCAGCCGAGAUCGGAAGAGCACACGU
B19: target 1 insA 3' of 17,insC 3' of 1 (mixed)
RNA 1: CACCCGUGCAAAAAUGCAGGGGUCUAAAACUGAGCGGAUAACCUCUCUAUGG
RNA 2: GGGAAUGGAUCCACAUCUACGAAUUCGUACCAUAGAAGAGGUUAUCCGCUCACCCGAGAUCGGAAGAGCACACGU
B20: target 1 insG 3' of 7,insU 3' of 1 (mixed)
RNA 1: CACCCGUGCAAAAAUGCAGGGGUCUAAAACUGAGCGGAUAACCUCUCUAUGG
RNA 2: GGGAAUGGAUCCACAUCUACGAAUUCGUACCAUAGAGAGGUUAUCGCGCUCAUCCGAGAUCGGAAGAGCACACGU
B21: target 1 insG 3' of 16,insA 3' of 12 (mixed)
RNA 1: CACCCGUGCAAAAAUGCAGGGGUCUAAAACUGAGCGGAUAACCUCUCUAUGG
RNA 2: GGGAAUGGAUCCACAUCUACGAAUUCGUACCAUAGAGGAGGAUUAUCCGCUCACCGAGAUCGGAAGAGCACACGU
B22: target 1 U3G,A20C (mixed)
RNA 1: CACCCGUGCAAAAAUGCAGGGGUCUAAAACUGAGCGGAUAACCUCUCUAUGG
RNA 2: GGGAAUGGAUCCACAUCUACGAAUUCGUACCCUAGAGAGGUUAUCCGCGCACCGAGAUCGGAAGAGCACACGU
B23: target 1 G5C,U10C (mixed)
RNA 1: CACCCGUGCAAAAAUGCAGGGGUCUAAAACUGAGCGGAUAACCUCUCUAUGG
RNA 2: GGGAAUGGAUCCACAUCUACGAAUUCGUACCAUAGAGAGGUCAUCCCCUCACCGAGAUCGGAAGAGCACACGU
B24: target 1 A1G,U19A (mixed)
RNA 1: CACCCGUGCAAAAAUGCAGGGGUCUAAAACUGAGCGGAUAACCUCUCUAUGG
RNA 2: GGGAAUGGAUCCACAUCUACGAAUUCGUACCAAAGAGAGGUUAUCCGCUCGCCGAGAUCGGAAGAGCACACGU
B25: target 1 insA 3' of 17,insA 3' of 2 (mixed)
RNA 1: CACCCGUGCAAAAAUGCAGGGGUCUAAAACUGAGCGGAUAACCUCUCUAUGG
RNA 2: GGGAAUGGAUCCACAUCUACGAAUUCGUACCAUAGAAGAGGUUAUCCGCUCAACCGAGAUCGGAAGAGCACACGU
B26: target 1 insU 3' of 14,insA 3' of 3 (mixed)
RNA 1: CACCCGUGCAAAAAUGCAGGGGUCUAAAACUGAGCGGAUAACCUCUCUAUGG
RNA 2: GGGAAUGGAUCCACAUCUACGAAUUCGUACCAUAGAGAUGGUUAUCCGCUACACCGAGAUCGGAAGAGCACACGU
B27: target 1 A9G,C21A (mixed)
RNA 1: CACCCGUGCAAAAAUGCAGGGGUCUAAAACUGAGCGGAUAACCUCUCUAUGG
RNA 2: GGGAAUGGAUCCACAUCUACGAAUUCGUACAAUAGAGAGGUUGUCCGCUCACCGAGAUCGGAAGAGCACACGU

This data set addresses T1, EsCas13d, nuclease-dead (Eubacterium siraeum, UniProt B0MS50, R295A;H300A;R849A;H854A).
T1 sequence: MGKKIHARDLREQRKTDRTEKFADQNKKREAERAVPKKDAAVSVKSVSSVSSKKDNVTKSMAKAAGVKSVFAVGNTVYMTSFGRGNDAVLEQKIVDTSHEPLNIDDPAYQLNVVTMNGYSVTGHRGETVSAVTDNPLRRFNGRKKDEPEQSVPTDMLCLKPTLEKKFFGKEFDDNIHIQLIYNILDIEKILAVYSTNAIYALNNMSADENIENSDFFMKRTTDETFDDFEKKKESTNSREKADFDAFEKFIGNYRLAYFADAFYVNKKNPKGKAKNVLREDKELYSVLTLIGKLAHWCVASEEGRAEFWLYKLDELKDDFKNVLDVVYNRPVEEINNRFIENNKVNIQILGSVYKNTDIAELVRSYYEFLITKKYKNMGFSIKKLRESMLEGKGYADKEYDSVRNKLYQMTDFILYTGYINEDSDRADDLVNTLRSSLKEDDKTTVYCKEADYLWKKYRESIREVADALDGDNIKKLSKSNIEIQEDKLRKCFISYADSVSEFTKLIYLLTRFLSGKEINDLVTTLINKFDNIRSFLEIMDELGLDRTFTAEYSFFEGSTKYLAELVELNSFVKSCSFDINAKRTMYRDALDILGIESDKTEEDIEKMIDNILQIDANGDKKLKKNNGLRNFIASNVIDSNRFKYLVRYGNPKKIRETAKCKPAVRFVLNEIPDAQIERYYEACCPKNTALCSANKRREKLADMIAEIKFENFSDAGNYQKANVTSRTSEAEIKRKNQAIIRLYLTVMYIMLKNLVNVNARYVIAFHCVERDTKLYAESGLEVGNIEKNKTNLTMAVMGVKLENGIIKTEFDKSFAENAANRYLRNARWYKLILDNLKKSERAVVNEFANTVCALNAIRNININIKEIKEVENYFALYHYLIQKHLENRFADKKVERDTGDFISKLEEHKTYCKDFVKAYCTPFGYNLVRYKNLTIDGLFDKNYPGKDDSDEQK
Nature of the data set: crRNA (strand 1, pre-loaded); Mg2+; 40 mM Tris-HCl pH 7.5, 150 mM NaCl, 6 mM MgCl2, 1 mM DTT, 0.1% Tween-20, 0.2 mg/ml BSA; 25 C; 10 min per concentration, then washed. Particulars: tags: His6-TwinStrep-SUMO cleaved; N-terminal SNAP kept (SNAP-Surface 488); label: 3' end held by stalled T7 RNA polymerase.
With B1, binding was put at a Kd of 48 ± 7 nM.
With B2, the Kd – broadly, the constant that tells how readily two partners part at equilibrium – came out at 18.5 ± 1.9 nM.
In the case of B3, the Kd was 4.9 ± 0.6 nM.
Consider B4, for which the Kd amounted to 6.1 ± 0.4 nM.
In turn, B5 displayed a dissociation constant (Kd) of 42 ± 9 nM.
B6: the Kd was 6.3 ± 0.7 nM.
On to B7, for which the affinity, expressed as Kd, was 16.4 ± 0.8 nM.
Next, B8: 26.3 ± 1.6 nM; B9: 56 ± 5 nM; B10: 30 ± 4 nM.
With B11, the Kd is 75 ± 33 nM.
B12 had a Kd of 36 ± 7 nM.
B13: the affinity, expressed as Kd, was 29 ± 4 nM.
On to B14, for which the affinity, expressed as Kd, was 15.6 ± 0.6 nM.
Next, B15: 9.2 ± 0.6 nM; B16: 6.3 ± 0.4 nM; B17: 31.8 ± 2.8 nM.
Turning to B18, the Kd came to 17.6 ± 1.7 nM.
In the case of B19 it was 12.2 ± 1.2 nM; in that of B20, 7.3 ± 0.5 nM; in that of B21, 45 ± 9 nM.
B22: the affinity, expressed as Kd, was 28.1 ± 2.2 nM.
B23 had a Kd of 23.2 ± 1.2 nM.
In turn, B24 displayed a Kd of 29 ± 4 nM.
Turning to B25, binding was put at a Kd of 13.8 ± 0.7 nM.
In the case of B26, the Kd was determined as 56 ± 14 nM.
In the case of B27 it was 36 ± 4 nM.
